B1: LexA_(DBDwt)-SehB-WT [Salmonella enterica serotype Typhimurium] / LexA_(DBDmut)-SehA [Salmonella enterica serotype Typhimurium] (parent)
chain 1: MRTHRQMDATSAKKIVDTFSDAVKTVPLMGEDRNDNEYRRALALVEFLVDHDDLENPLFELLCARISEYEKHAPEFKALNQHLEKTPPGVSVLRTLMDQYGLKAADLANELGSKSNVSNILNGRRALTVNHIKALTQRFKLPADAFIE
chain 2: MHVISRKPFNEAMLMYPNHELALTELLNVLEKKTFTQPEEMKRYIPSLDNFKYRDKWWVIDVSGNSLRLISYIDFRLHKIFVKHIVSHAEYDKLTAYYRGNKE
B2: LexA_(DBDwt)-SehB-WT [Salmonella enterica serotype Typhimurium] / itself (parent)
chain: B1 chain 1

Variants of: B1
Assay: LexA-based genetic system for heterodimerization (sulA-lacZ reporter, E. coli SU202)
Details: with LexA_(DBDmut)-SehA [Salmonella enterica serotype Typhimurium]; LB broth at 37°C to an OD600 nm of 1.0; 1 mM IPTG; parent: 750; read off a plot

Point of comparison: chain 1 MRTHRQMDATSAKKIVDTFSDAVKTVPLMGEDRNDNEYRRALALVEFLVDHDDLENPLFELLCARISEYEKHAPEFKALNQHLEKTPPGVSVLRTLMDQYGLKAADLANELGSKSNVSNILNGRRALTVNHIKALTQRFKLPADAAIE [chain 1 F146A], response 780 U/mg. Against it:
- chain 1 MRTHRQMDATSAKKIVDTFSDAVKTVPLMGEDRNDNEARRALALVEFLVDHDDLENPLFELLCARISEYEKHAPEFKALNQHLEKTPPGVSVLRTLMDQYGLKAADLANELGSKSNVSNILNGRRALTVNHIKALTQRFKLPADAFIE [chain 1 Y38A] — higher, 1100 U/mg
- chain 1 MRTHRQMDATSAKKIVDTFSDAVKTVPLMGEDRNDNEYRRALALVEFLVDHDDLENPLFELLCARASEYEKHAPEFKALNQHLEKTPPGVSVLRTLMDQYGLKAADLANELGSKSNVSNILNGRRALTVNHIKALTQRFKLPADAFIE [chain 1 I66A] — lower, 630 U/mg
- chain 1 MRTHRQMDATSAKKIVDTFSDAVKTVPLMGEDRNDNEYRRALALVEFAVDHDDLENPLFELLCARISEYEKHAPEFKALNQHLEKTPPGVSVLRTLMDQYGLKAADLANELGSKSNVSNILNGRRALTVNHIKALTQRFKLPADAFIE [chain 1 L48A] — higher, 940 U/mg
- chain 1 MRTHRQMDATSAKKIVDTFSDAVKTVPLMGEDRNDNEYRRALALVEFLVDHDDLENPLFELLCARISEYEKHAPEFKALNQHLEKTPPGVSVLRTLMDQYGLKAADLANELGSKSNVSNILNGRRALTVNHIKAATQRFKLPADAFIE [chain 1 L135A] — lower, 720 U/mg
- chain 1 MRTHRQMDATSAKKIVDTFSDAVKTVPLMGEDRNDNEYRRALALVEFLVDHDDLENPAFELLCARISEYEKHAPEFKALNQHLEKTPPGVSVLRTLMDQYGLKAADLANELGSKSNVSNILNGRRALTVNHIKALTQRFKLPADAFIE [chain 1 L58A] — higher, 820 U/mg
- chain 1 MRTHRQMDATSAKKIVDTFSDAVKTVPLMGEDRNDNEYRRALALVEFLVDHDDLENPLFELLCARISEYEKHAPEFKALNQHLEKTPPGVSVLRTLMDQYGLKAADLANELGSKSNVSNILNGRRAATVNHIKALTQRFKLPADAFIE [chain 1 L127A] — lower, 770 U/mg
- chain 1 MRTHRQMDATSAKKIVDTFSDAVKTVPLMGEDRNDNEYRRALALVEFLVDHDDLENPLFELLCARISEYEKHAPEFKALNQHLEKTPPGVSVLRTLMDQYGLKAADLANELGAKSNVSNILNGRRALTVNHIKALTQRFKLPADAFIE [chain 1 S113A] — lower, 760 U/mg

Variants of: B2
Assay: LexA-based genetic system for homodimerization (sulA-lacZ reporter, E. coli SU101)
Details: with itself; LB broth at 37°C to an OD600 nm of 1.0; 1 mM IPTG; parent: 130; read off a plot

Point of comparison: MRTHRQMDATSAKKIVDTFSDAVKTVPLMGEDRNDNEYRRALALVEFLVDHDDLENPLFELLCARISEYEKHAPEFKALNQHLEKTPPGVSVLRTLMDQYGLKAADLANELGSKSNVSNILNGRRAATVNHIKALTQRFKLPADAFIE [chain 1 L127A], response 170 U/mg. Against it:
- MRTHRQMDATSAKKIVDTFSDAVKTVPLMGEDRNDNEARRALALVEFLVDHDDLENPLFELLCARISEYEKHAPEFKALNQHLEKTPPGVSVLRTLMDQYGLKAADLANELGSKSNVSNILNGRRALTVNHIKALTQRFKLPADAFIE [chain 1 Y38A] — higher, 600 U/mg
- MRTHRQMDATSAKKIVDTFSDAVKTVPLMGEDRNDNEYRRALALVEFLVDHDDLENPLFELLCARISEYEKHAPEFKALNQHLEKTPPGVSVLRTLMDQYGLKAADLANELGSKSNVSNILNGRRALTVNHIKALTQRFKLPADAAIE [chain 1 F146A] — lower, 110 U/mg
- MRTHRQMDATSAKKIVDTFSDAVKTVPLMGEDRNDNEYRRALALVEFAVDHDDLENPLFELLCARISEYEKHAPEFKALNQHLEKTPPGVSVLRTLMDQYGLKAADLANELGSKSNVSNILNGRRALTVNHIKALTQRFKLPADAFIE [chain 1 L48A] — higher, 770 U/mg
- MRTHRQMDATSAKKIVDTFSDAVKTVPLMGEDRNDNEYRRALALVEFLVDHDDLENPLFELLCARASEYEKHAPEFKALNQHLEKTPPGVSVLRTLMDQYGLKAADLANELGSKSNVSNILNGRRALTVNHIKALTQRFKLPADAFIE [chain 1 I66A] — higher, 680 U/mg
- MRTHRQMDATSAKKIVDTFSDAVKTVPLMGEDRNDNEYRRALALVEFLVDHDDLENPLFELLCARISEYEKHAPEFKALNQHLEKTPPGVSVLRTLMDQYGLKAADLANELGSKSNVSNILNGRRALTVNHIKAATQRFKLPADAFIE [chain 1 L135A] — lower, 130 U/mg
- MRTHRQMDATSAKKIVDTFSDAVKTVPLMGEDRNDNEYRRALALVEFLVDHDDLENPAFELLCARISEYEKHAPEFKALNQHLEKTPPGVSVLRTLMDQYGLKAADLANELGSKSNVSNILNGRRALTVNHIKALTQRFKLPADAFIE [chain 1 L58A] — higher, 650 U/mg
- MRTHRQMDATSAKKIVDTFSDAVKTVPLMGEDRNDNEYRRALALVEFLVDHDDLENPLFELLCARISEYEKHAPEFKALNQHLEKTPPGVSVLRTLMDQYGLKAADLANELGAKSNVSNILNGRRALTVNHIKALTQRFKLPADAFIE [chain 1 S113A] — lower, 110 U/mg

Reference: article PMC7160566
